Test results reported in the supplement of paper PMC10567573.

B1: ELF3 (parent)
chain: LSKEYWDCLEGKKSKHAPRGTHLW
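Also: lentivirally expressed fusions sorted by FACS into six bins by GFP to DsRed ratio, PSI derived from sequencing read proportions per bin multiplied by bin number.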

Variants of: B1
Assay: protein stability index of a GFP-peptide fusion (GPS, HEK-293T) (PSI 1-6); higher = more stable
Conditions: c terminus: a fixed tail appended
For LSKEYWDCLGGKKSKHAPRGTHLW [E10G], the protein stability index was 2.37. LSKEYWDCLYGKKSKHAPRGTHLW [E10Y] gave a protein stability index of 1.63. For LSKEYWDCLFGKKSKHAPRGTHLW [E10F], the protein stability index was 2.08. Variant LSKEYWDCLHGKKSKHAPRGTHLW [E10H] has a protein stability index of 2.15. Variant LSKEYWDCLWGKKSKHAPRGTHLW [E10W] has a protein stability index of 2.08. LSKEYWDCLSGKKSKHAPRGTHLW [E10S] showed a protein stability index of 2.49. Variant LSKEYWDCLMGKKSKHAPRGTHLW [E10M] has a protein stability index of 2.18. With LSKEYWDCLCGKKSKHAPRGTHLW [E10C] the protein stability index was 2.07. Variant LSKEYWDCLDGKKSKHAPRGTHLW [E10D] has a protein stability index of 3.23. With LSKEYWDCLLGKKSKHAPRGTHLW [E10L] the protein stability index was 1.82. Work on LSKEYWDCLKGKKSKHAPRGTHLW [E10K] yielded a protein stability index of 2.18. With LSKEYWDCLVGKKSKHAPRGTHLW [E10V] the protein stability index was 2.28. LSKEYWDCLTGKKSKHAPRGTHLW [E10T] showed a protein stability index of 2.1. With LSKEYWDCLQGKKSKHAPRGTHLW [E10Q] the protein stability index was 2.73. With LSKEYWDCLNGKKSKHAPRGTHLW [E10N] the protein stability index was 2.55. In the case of LSKEYWDCLPGKKSKHAPRGTHLW [E10P], the protein stability index is reported as 2.16. For LSKEYWDCLIGKKSKHAPRGTHLW [E10I], the protein stability index was 1.61. In the case of LSKEYWDCLAGKKSKHAPRGTHLW [E10A], the protein stability index is reported as 2.52. LSKEYWDCLRGKKSKHAPRGTHLW [E10R] gave a protein stability index of 1.86. With LSKEYWDCLEGKKSKHCPRGTHLW [A17C] the protein stability index was 3.33. With LSKEYWDCLEQKKSKHAPRGTHLW [G11Q] the protein stability index was 2.69. Work on LSKEYWDCLETKKSKHAPRGTHLW [G11T] yielded a protein stability index of 2.98. LSKEYWDCLENKKSKHAPRGTHLW [G11N] gave a protein stability index of 3.48. In the case of LSKEYWDCLEYKKSKHAPRGTHLW [G11Y], the protein stability index is reported as 2.58. For LSKEYWDCLEPKKSKHAPRGTHLW [G11P], the protein stability index was 2.89. In the case of LSKEYWDCLEEKKSKHAPRGTHLW [G11E], the protein stability index is reported as 3.29. Variant LSKEYWDCLELKKSKHAPRGTHLW [G11L] has a protein stability index of 2.71. Variant LSKEYWDCLEWKKSKHAPRGTHLW [G11W] has a protein stability index of 1.82. With LSKEYWDCLEIKKSKHAPRGTHLW [G11I] the protein stability index was 2.29. Work on LSKEYWDCLEHKKSKHAPRGTHLW [G11H] yielded a protein stability index of 2.17. LSKEYWDCLERKKSKHAPRGTHLW [G11R] showed a protein stability index of 3.26. For LSKEYWDCLEVKKSKHAPRGTHLW [G11V], the protein stability index was 2.2. Work on LSKEYWDCLESKKSKHAPRGTHLW [G11S] yielded a protein stability index of 3.5. Variant LSKEYWDCLECKKSKHAPRGTHLW [G11C] has a protein stability index of 2.27. LSKEYWDCLEAKKSKHAPRGTHLW [G11A] gave a protein stability index of 2.91. Work on LSKEYWDCLEKKKSKHAPRGTHLW [G11K] yielded a protein stability index of 2.97. For LSKEYWDCLEDKKSKHAPRGTHLW [G11D], the protein stability index was 3.19. LSKEYWDCLEMKKSKHAPRGTHLW [G11M] gave a protein stability index of 1.94. In the case of LSKEYWDCLEFKKSKHAPRGTHLW [G11F], the protein stability index is reported as 2.43. In the case of LSKEYWDELEGKKSKHAPRGTHLW [C8E], the protein stability index is reported as 2.85. LSKEYWDQLEGKKSKHAPRGTHLW [C8Q] gave a protein stability index of 2.95. For LSKEYWDPLEGKKSKHAPRGTHLW [C8P], the protein stability index was 2.04. With LSKEYWDHLEGKKSKHAPRGTHLW [C8H] the protein stability index was 3.06. Work on LSKEYWDFLEGKKSKHAPRGTHLW [C8F] yielded a protein stability index of 2.81. With LSKEYWDMLEGKKSKHAPRGTHLW [C8M] the protein stability index was 3.48. LSKEYWDNLEGKKSKHAPRGTHLW [C8N] showed a protein stability index of 3.07. LSKEYWDWLEGKKSKHAPRGTHLW [C8W] showed a protein stability index of 2.17. For LSKEYWDVLEGKKSKHAPRGTHLW [C8V], the protein stability index was 3.89. In the case of LSKEYWDKLEGKKSKHAPRGTHLW [C8K], the protein stability index is reported as 3.73. In the case of LSKEYWDTLEGKKSKHAPRGTHLW [C8T], the protein stability index is reported as 3.26. For LSKEYWDGLEGKKSKHAPRGTHLW [C8G], the protein stability index was 3.2. For LSKEYWDRLEGKKSKHAPRGTHLW [C8R], the protein stability index was 3.2. LSKEYWDLLEGKKSKHAPRGTHLW [C8L] showed a protein stability index of 3.08. Variant LSKEYWDDLEGKKSKHAPRGTHLW [C8D] has a protein stability index of 3.97. LSKEYWDALEGKKSKHAPRGTHLW [C8A] showed a protein stability index of 3.1. For LSKEYWDYLEGKKSKHAPRGTHLW [C8Y], the protein stability index was 2.74. LSKEYWDSLEGKKSKHAPRGTHLW [C8S] showed a protein stability index of 3.33. In the case of LSKEYWDILEGKKSKHAPRGTHLW [C8I], the protein stability index is reported as 2.66. Work on LSKEYWDCLEGKKSRHAPRGTHLW [K15R] yielded a protein stability index of 3.44. Variant LSKEYWDCLEGKKSIHAPRGTHLW [K15I] has a protein stability index of 2.61. Variant LSKEYWDCLEGKKSMHAPRGTHLW [K15M] has a protein stability index of 3.18. In the case of LSKEYWDCLEGKKSCHAPRGTHLW [K15C], the protein stability index is reported as 2.29. LSKEYWDCLEGKKSTHAPRGTHLW [K15T] gave a protein stability index of 3.26. LSKEYWDCLEGKKSEHAPRGTHLW [K15E] gave a protein stability index of 2.77. In the case of LSKEYWDCLEGKKSWHAPRGTHLW [K15W], the protein stability index is reported as 2.93. LSKEYWDCLEGKKSAHAPRGTHLW [K15A] showed a protein stability index of 2.86. Work on LSKEYWDCLEGKKSLHAPRGTHLW [K15L] yielded a protein stability index of 2.16. LSKEYWDCLEGKKSNHAPRGTHLW [K15N] gave a protein stability index of 2.79. LSKEYWDCLEGKKSFHAPRGTHLW [K15F] gave a protein stability index of 2.74. Variant LSKEYWDCLEGKKSQHAPRGTHLW [K15Q] has a protein stability index of 2.87. Work on LSKEYWDCLEGKKSGHAPRGTHLW [K15G] yielded a protein stability index of 2.56. Work on LSKEYWDCLEGKKSVHAPRGTHLW [K15V] yielded a protein stability index of 2.64. In the case of LSKEYWDCLEGKKSPHAPRGTHLW [K15P], the protein stability index is reported as 2.53. For LSKEYWDCLEGKKSYHAPRGTHLW [K15Y], the protein stability index was 1.83. Variant LSKEYWDCLEGKKSDHAPRGTHLW [K15D] has a protein stability index of 3. With LSKEYWDCLEGKKSSHAPRGTHLW [K15S] the protein stability index was 3.04. With LSKEYWDCLEGKKSHHAPRGTHLW [K15H] the protein stability index was 2.52. Work on LSKEYWDCLEGKKSKAAPRGTHLW [H16A] yielded a protein stability index of 2.72. LSKEYWDCLEGKKSKQAPRGTHLW [H16Q] gave a protein stability index of 2.86. LSKEYWDCLEGKKSKRAPRGTHLW [H16R] showed a protein stability index of 2.4. With LSKEYWDCLEGKKSKFAPRGTHLW [H16F] the protein stability index was 2.64. Work on LSKEYWDCLEGKKSKYAPRGTHLW [H16Y] yielded a protein stability index of 3.54. With LSKEYWDCLEGKKSKPAPRGTHLW [H16P] the protein stability index was 2.65. LSKEYWDCLEGKKSKDAPRGTHLW [H16D] gave a protein stability index of 3.25. For LSKEYWDCLEGKKSKEAPRGTHLW [H16E], the protein stability index was 3.14. LSKEYWDCLEGKKSKKAPRGTHLW [H16K] gave a protein stability index of 3.05. LSKEYWDCLEGKKSKCAPRGTHLW [H16C] gave a protein stability index of 2.64. Variant LSKEYWDCLEGKKSKTAPRGTHLW [H16T] has a protein stability index of 3.43. In the case of LSKEYWDCLEGKKSKLAPRGTHLW [H16L], the protein stability index is reported as 2.68. Variant LSKEYWDCLEGKKSKSAPRGTHLW [H16S] has a protein stability index of 2.52. With LSKEYWDCLEGKKSKGAPRGTHLW [H16G] the protein stability index was 2.88. LSKEYWDCLEGKKSKWAPRGTHLW [H16W] showed a protein stability index of 2.24. Work on LSKEYWDCLEGKKSKVAPRGTHLW [H16V] yielded a protein stability index of 2.94. LSKEYWDCLEGKKSKNAPRGTHLW [H16N] gave a protein stability index of 3.2.
